Laboratory results as given in PMC13276077.
Substitutions are numbered along the chain they refer to.

B1: 16-N603-30 nucleosome 91 meCpA (nucleosome)
DNA 1: GAGCCACAAAATCACCGACGCTCACGGGTGCCCAGTTCGCGCGCCCACCTACCGTGTGAAGTCGTCACTCGGGCTTCTAAGTACGCTTAGCGCACGGTAGAGCGCAATCCAAGGCTAACCACCGTGCATCGATGTTGAAAGAGGCCCTCCGTCCTTATTACTTCAAGTCCCTGGGGTACCCGTTTCACTGCCA
DNA 2: TGGCAGTGAAACGGGTACCCCAGGGACTTGAAGTAATAAGGACGGAGGGCCTCTTTCAACATCGATGCACGGTGGTTAGCCTTGGATTGCGCTCTACCGTGCGCTAAGCGTACTTAGAAGCCCGAGTGACGACTTCACACGGTAGGTGGGCGCGCGAACTGGGCACCCGTGAGCGTCGGTGATTTTGTGGCTC
modifications: asymmetric meCpA at 91
B2: 15-N601-15 nucleosome -1 meCpG (nucleosome)
DNA 1: ATGGAACACATTGCACAGGATGTATATATCTGACACGTGCCTGGAGACTAGGGAGTAATCCCCTTGGCGGTTAAAACGCGGGGGACAGCGCGTACGTGCGTTTAAGCGGTGCTAGAGCTGTCTACGACCAATTGAGCGGCCTCGGCACCGGGATTCTCCAGGGCGGCCGCGTATT
DNA 2: AATACGCGGCCGCCCTGGAGAATCCCGGTGCCGAGGCCGCTCAATTGGTCGTAGACAGCTCTAGCACCGCTTAAACGCACGTACGCGCTGTCCCCCGCGTTTTAACCGCCAAGGGGATTACTCCCTAGTCTCCAGGCACGTGTCAGATATATACATCCTGTGCAATGTGTTCCAT
modifications: meCpG at -1
B3: 15-N601-15 nucleosome -61 meCpG (nucleosome)
DNA 1: B2 DNA 1
DNA 2: B2 DNA 2
modifications: meCpG at -61 (GGCACCGGGATT)
B4: 16-N603-30 nucleosome 81 meCpA (nucleosome)
DNA 1: B1 DNA 1
DNA 2: B1 DNA 2
modifications: asymmetric meCpA at 81
B5: N601 nucleosome core particle -61 meCpG (nucleosome)
DNA 1: CAGGATGTATATATCTGACACGTGCCTGGAGACTAGGGAGTAATCCCCTTGGCGGTTAAAACGCGGGGGACAGCGCGTACGTGCGTTTAAGCGGTGCTAGAGCTGTCTACGACCAATTGAGCGGCCTCGGCACCGGGATTCTCCA
DNA 2: TGGAGAATCCCGGTGCCGAGGCCGCTCAATTGGTCGTAGACAGCTCTAGCACCGCTTAAACGCACGTACGCGCTGTCCCCCGCGTTTTAACCGCCAAGGGGATTACTCCCTAGTCTCCAGGCACGTGTCAGATATATACATCCTG
modifications: meCpG at -61
B6: 16-N603-30 +91 CG nucleosome 91 meCpG (nucleosome)
DNA 1: B1 DNA 1 with T12C, A14G, C15G
DNA 2: B1 DNA 2 with G179C, T180C, A182G
modifications: meCpG at 91
B7: 16-N603-30 +81 CG nucleosome 81 meCpG (nucleosome)
DNA 1: B1 DNA 1 with T22C, A24G, C25G
DNA 2: B1 DNA 2 with G169C, T170C, A172G
modifications: meCpG at 81
B8: N601-15 nucleosome 81 meCpA (nucleosome)
DNA 1: ATGGAACACATTGCACAGGATGTATATATCTGACACGTGCCTGGAGACTAGGGAGTAATCCCCTTGGCGGTTAAAACGCGGGGGACAGCGCGTACGTGCGTTTAAGCGGTGCTAGAGCTGTCTACGACCAATTGAGCGGCCTCGGCACCGGGATTCTCCA
DNA 2: TGGAGAATCCCGGTGCCGAGGCCGCTCAATTGGTCGTAGACAGCTCTAGCACCGCTTAAACGCACGTACGCGCTGTCCCCCGCGTTTTAACCGCCAAGGGGATTACTCCCTAGTCTCCAGGCACGTGTCAGATATATACATCCTGTGCAATGTGTTCCAT
modifications: asymmetric meCpA at 81
B9: N601-15 nucleosome (single 15 bp linker) (nucleosome)
DNA 1: B8 DNA 1
DNA 2: B8 DNA 2
B10: 16-N603-30 +81 CG free DNA 81 meCpG (dsDNA)
DNA 1: B1 DNA 1 with T22C, A24G, C25G
DNA 2: B1 DNA 2 with G169C, T170C, A172G
modifications: meCpG at 81
B11: 16-N603-30 +91 CG free DNA 91 meCpG (dsDNA)
DNA 1: B1 DNA 1 with T12C, A14G, C15G
DNA 2: B1 DNA 2 with G179C, T180C, A182G
modifications: meCpG at 91
B12: 16-N603-30 free DNA 91 meCpA (dsDNA)
DNA 1: B1 DNA 1
DNA 2: B1 DNA 2
modifications: asymmetric meCpA at 91
B13: 16-N603-30 free DNA 81 meCpA (dsDNA)
DNA 1: B1 DNA 1
DNA 2: B1 DNA 2
modifications: asymmetric meCpA at 81
B14: 16-N603-30 free DNA unmethylated (dsDNA)
DNA 1: B1 DNA 1
DNA 2: B1 DNA 2
B15: 15-N601-15 free DNA -61 meCpG (dsDNA)
DNA 1: B2 DNA 1
DNA 2: B2 DNA 2
modifications: meCpG at -61
B16: 15-N601-15 free DNA unmethylated (dsDNA)
DNA 1: B2 DNA 1
DNA 2: B2 DNA 2
B17: 15-N601-15 free DNA -1 meCpG (dsDNA)
DNA 1: B2 DNA 1
DNA 2: B2 DNA 2
modifications: meCpG at -1

target: HisMBP-MeCP2 162-309;histone octamer (Homo sapiens;, UniProt P51608;P0C0S8;P62807;P68431;P62805 162-309;2-130;2-126;2-136;2-103, |H2B T115C;H3.1 C96S;C110A); assay: EMSA; 20 mM HEPES pH 7.5, 75 mM NaCl, 125 mM KCl, 50 uM EDTA, 2.5 mM beta-mercaptoethanol, 5% glycerol, BSA, 1.58 uM 47 bp competitor DNA (nucleosome assays); absent w; conditions: not given

| Binder | Kd |
| --- | --- |
| B1 | 103 nM |

target: MeCP2 R133G;histone octamer (Homo sapiens;, UniProt P51608;P0C0S8;P62807;P68431;P62805 1-486;2-130;2-126;2-136;2-103, R133G|H2B T115C;H3.1 C96S;C110A); assay: as above; conditions: not given

| Binder | Kd |
| --- | --- |
| B2 | 522 nM |
| B3 | 534 nM |
| B1 | 162 nM |

target: MeCP2 MBD;histone octamer (Homo sapiens;, UniProt P51608;P0C0S8;P62807;P68431;P62805 77-167;2-130;2-126;2-136;2-103, |H2B T115C;H3.1 C96S;C110A); assay: as above; conditions: not given

| Binder | Kd |
| --- | --- |
| B2 | 812 nM |
| B3 | 809 nM |
| B1 | 85.7 nM |
| B4 | 268 nM |

target: MeCP2 full-length, e2 isoform;histone octamer (Homo sapiens;, UniProt P51608;P0C0S8;P62807;P68431;P62805 1-486;2-130;2-126;2-136;2-103, |H2B T115C;H3.1 C96S;C110A); assay: as above; conditions: not given

| Binder | binding result | Kd |
| --- | --- | --- |
| B5 | no binding | – |
| B2 | – | 130 nM |
| B3 | – | 137 nM |
| B1 | – | 57.1 nM |
| B6 | – | 71.3 nM |
| B4 | – | 65.3 nM |
| B7 | – | 65.5 nM |
| B8 | – | 357 nM |
| B9 | – | 419 nM |

target: MeCP2 AT-DIRmut;histone octamer (Homo sapiens;, UniProt P51608;P0C0S8;P62807;P68431;P62805 1-486;2-130;2-126;2-136;2-103, R188G;R190G;K254N;K256N;R268Q|H2B T115C;H3.1 C96S;C110A); assay: as above; conditions: not given

| Binder | Kd |
| --- | --- |
| B2 | 71.3 nM |
| B3 | 78.6 nM |
| B1 | 25.3 nM |
| B4 | 42.2 nM |

target: MeCP2 full-length, e2 isoform (Homo sapiens, UniProt P51608 1-486); assay: EMSA; 20 mM HEPES pH 7.5, 75 mM NaCl, 125 mM KCl, 50 uM EDTA, 2.5 mM beta-mercaptoethanol, 5% glycerol, BSA, 1.58 uM 47 bp competitor DNA (nucleosome assays; absent with free DNA), room temperature 30 min; conditions: protein: recombinant; tags: none; blunt

| Binder | Kd |
| --- | --- |
| B10 | 23.8 ± 1.2 nM |
| B11 | 24.6 ± 1.7 nM |
| B12 | 27.8 ± 1.9 nM |

same assay, conditions: protein: recombinant; tags: none; label: 5' 6-FAM

| Binder | Kd |
| --- | --- |
| B13 | 27.1 ± 1.8 nM |
| B14 | 46.2 ± 2.8 nM |

same assay, conditions: protein: recombinant; tags: none; label: 5' 6-FAM; blunt

| Binder | Kd |
| --- | --- |
| B15 | 50.5 ± 1.9 nM |
| B16 | 75.9 ± 4.2 nM |
| B17 | 45.3 ± 2 nM |

target: MeCP2 full-length, e2 isoform;histone H1.0;histone octamer (Homo sapiens;Homo sapiens;, UniProt P51608;P07305;P0C0S8;P62807;P68431;P62805 1-486;1-194;2-130;2-126;2-136;2-103, ||H2B T115C;H3.1 C96S;C110A); assay: EMSA; histone H1.0 pre-bound (chromatosome); 20 mM HEPES pH 7.5, 75 mM NaCl, 125 mM KCl, 50 uM EDTA, 2.5 mM beta-mercaptoethanol, 5% glycerol, BSA, 1.58 uM 47 bp competitor DNA (nucleosome assays); absent w; conditions: not given

| Binder | binding result |
| --- | --- |
| B2 | no binding |
| B3 | no binding |
